From PMC3371134 (Journal of Neurochemistry, 2012)

Target: calmodulin-Sepharose (calmodulin coupled to Sepharose beads) (UniProt P62157 1-149)
Experiment: pull-down

B1: Pcp4l1 IQ motif synthetic peptide (peptide)
peptide: APETEKAALAIQGKFRRFQKRKKDS
B1: binds.
